Tested on: MS2 coat protein
Assay: apparent KD of MS2 coat protein; designed switch direction (-1 OFF switch, 1 ON switch): -1; higher = weaker reporter binding
In short: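 Normalised cluster fluorescence was curve-fitted, and each design's median over clusters is its apparent KD. Before this, SNAP-549-labelled MS2 coat protein was titrated from 0.7 or 1.5 nM, doubling to 3 µM, over RNA switches transcribed on Illumina chips by stalled E. coli RNA polymerase. Titrations had no input, 200 uM small-molecule ligand, or an oligonucleotide input, and steps lasted 0.8–1.5 h (lowest) to 10–20 min (highest).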

[1] = Eterna round: R95, input ligand: FMN 200 uM
[2] = Eterna round: R95, input ligand: microRNA oligo, concentration not stated
[3] = Eterna round: R95, input ligand: none
[4] = input ligand: microRNA oligo, concentration not stated

Row | Sequence | apparent KD of MS2 coat protein [1] | apparent KD of MS2 coat protein [2] | apparent KD of MS2 coat protein [3] | apparent KD of MS2 coat protein (input ligand: FMN 200 uM) | apparent KD of MS2 coat protein [4] | apparent KD of MS2 coat protein (input ligand: none)
1 | UAGAAGGUAGGAUAUACGAAUAAAUAGGGUAGGAAGAAGACACAUGAGGAUCACCCAUGUAGAAGGACCAAGAU [Mat - Exclusion 2 - Mod of my Tesla design - D34] (puzzle: Exclusion 2) | 0.0366 µM | 0.0175 µM | 0.0185 µM |  |  | 
2 | CUUUUGUGAGGAUAUUAGUAGUAAAUAAAUAAAUUUACUACUGAGAAGGCACAUGAGGAUCACCCAUGUUCCUC [salish99_ex4_r3_060] (puzzle: Exclusion 4) |  | 0.0337 µM |  |  |  | 
3 | GCCAGAGCAGGAUAUUGAAUAAUUCACAUGAGGAUCACCCAUGUCCAGCGAAAGCUGGAACGAGAAGGGCUCUGGC [Fiskers Ex 5 - 5] (puzzle: Exclusion 5) | 0.0125 µM | 0.0117 µM | 0.0111 µM |  |  | 
4 | GCCCGGCGUGUAGGAUAUGGUUCCGUUUCGGUUCCAGAAGGACAUGAGGAUCACCCAUGUGCCUGUCGUCGGUCGUCACCGGGC [salish99_ExNG1_r04_401] (Eterna round: R96, puzzle: Exclusion NG 1) |  |  |  | 0.0111 µM | 0.00987 µM | 0.0124 µM
5 | CGUGUGUGAGGAUAUGACAAUGGUAUCUUCGGAUACCAUUGUCAGAAGGUACAUGAGGAUCACCCAUGUAGAUC [Exclusion 4 - Mod Brourd Ex 4-3: 20 v.2] (Eterna round: R96, puzzle: Exclusion 4) |  |  |  | 0.115 µM | 0.0414 µM | 0.0598 µM
6 | CCUUUGUCAGGAUAUCAGAACACGCCCGUAGGGAGUGCAAAUGAGAAGGGACAUGAGGAUCACCCAUGUACAGA [Leonveti] (puzzle: Exclusion 4) |  | 0.0294 µM |  |  |  | 
7 | CCGCAUGCUGUCAGGAUAUCGUAGAUAAUAAUAUGCGAGAAGGGACAUGAGGAUCACCCAUGUAAGAGGCGGCC [Design for Riboswitch] (puzzle: Brourd's mod of Exclusion 4) |  | 0.0244 µM |  |  |  | 
8 | CCCUCACAUGAGGAUCACCCAUGUUAGGAUAUCUACCAGGAGCCUAAAAUGGCCCAACGGAGAAGGAACGUGCA [Arbire] (Eterna round: R96, puzzle: Exclusion 1) |  |  |  |  | 0.0147 µM | 
9 | ACAUGAGGAUCACCCAUGUCUGGCUGGUCUGCUCCGGCUGUUGAGGAUAUAGUCCGGUGUUCGCGCUAGAAGGCGAGGGCUGGA [Aenatbe mod 42] (Eterna round: R96, puzzle: Exclusion NG 3) |  |  |  | 0.0425 µM | 0.0219 µM | 0.0484 µM
10 | AAAUUGGUAGAGGAUAUCGCACAGGAAACACUGCGAGAAGGCUGCACAUGAGGAUCACCCAUGUUUAGUUGCGA [EX6 #37] (Eterna round: R97, puzzle: Exclusion 6) |  |  |  | 0.0225 µM |  | 0.0166 µM
11 | CAUUAUUAUCGAGGAUAUCCUAUUGAAAUUCUGGGAGAAGGCGGACUCAACAUGAGGAUCACCCAUGUGGGACGGAUGCUAGGC [salish99_exng1_r04_601] (Eterna round: R96, puzzle: Exclusion NG 1) |  |  |  | 0.0142 µM | 0.0156 µM | 0.0193 µM
12 | CAGUACUGAGGAUAUACAUGAGGAUCACCCAUGUGUUCCAGCUAGGAAACUAGCAAAAGUAGAAGGCAGUACUG [salish99_ex3_r3_064] (puzzle: Exclusion 3) | 0.285 µM | 0.0196 µM | 0.0224 µM |  |  | 
13 | UUUAAGGAAGGAUAUACAAUAUAAAUAAUAUCCUCAUUAUUACAUGAGGAUCACCCAUGUAGAAGGUCCAAUUU [Mat - Exclusion 2 - Mod of Hog - D89] (puzzle: Exclusion 2) |  | 0.137 µM |  |  |  | 
14 | GAGGCAUGCCGAGGUCCACACAUGAGGAUCACCCAUGUCAUGACAGGCUUUUUACUCGUUUUAUCGCUAUCGCGUUC [Vebizaledi] (puzzle: Sensor v3, turn-off variant 1) | 0.0848 µM | 0.159 µM | 0.0707 µM |  |  | 
15 | AUAGAGUCAGGAUAUACAGGUGGAGGAGAGCAGCAUAAGGAGUAGAAGGGACAUGAGGAUCACCCAUGUAAGUG [JR_Exclu4_Sub059] (puzzle: Exclusion 4) | 0.0459 µM | 0.0639 µM | 0.0569 µM |  |  | 
16 | CUGUGCAUAGGAUAUGAAAGAAGAAACAUGAGGAUCACCCAUGUAGCCUCAAAUCUUAUGUCAGAAGGAUGCGUUA [Default title] (Eterna round: R97, puzzle: Exclusion 5) |  |  |  | 0.0159 µM |  | 0.0136 µM
17 | CGUAAGGUAGGAUAUACAUGAGGAUCACCCAUGUCCCACCCGUUACCUAUGACCAUAUGUAGAAGGACCAAUGC [Exy#10] (Eterna round: R97, puzzle: Exclusion 3) |  |  |  | 0.0207 µM |  | 0.0227 µM

Row | Sequence | apparent KD of MS2 coat protein [1] | apparent KD of MS2 coat protein [2] | apparent KD of MS2 coat protein [3] | apparent KD of MS2 coat protein (input ligand: FMN 200 uM) | apparent KD of MS2 coat protein [4] | apparent KD of MS2 coat protein (input ligand: none)
18 | AGCUAGAUAGGAUAUGCCCGGGAUAACAUGAGGAUCACCCAUGUGACCGAAUCAUGUCCAGCAGAAGGGUUUGGGA [Mod of ViennaUCT 9 - Jieux - Exclusion 5] (Eterna round: R97, puzzle: Exclusion 5) |  |  |  | 0.0347 µM |  | 0.0233 µM
19 | GCAUCGUAAGGAUAUCAGCCGGUGGUAUACCGAAACAGGGUUGAGAAGGUACAUGAGGAUCACCCAUGUGAUUU [Eternabot (L2) Solution 37] (Eterna round: R97, puzzle: Exclusion 4) |  |  |  | 0.203 µM |  | 0.0586 µM
20 | ACCUACCAGCUAGGAUAUGCAGUACAGUAAAAUGUAGAAGGAGCACGAUCCAGACAUGAGGAUCACCCAUGUGGGCGGUAGGCA [Errage] (Eterna round: R96, puzzle: Exclusion NG 1) |  |  |  | 0.0144 µM | 0.014 µM | 0.0169 µM
21 | AUAAGUAUAUAGGAUAUCUAGCUGGAAACAGCUAGAGAAGGAUGUACAUGAGGAUCACCCAUGUAAAUCUCAAU [Ex6/12-A3] (Eterna round: R97, puzzle: Exclusion 6) |  |  |  | 0.0163 µM |  | 0.0141 µM
22 | GGUCAGAUGGUAGGAUAUCCAUAUCGAGUGACCCUUUCAUAACAUGAGGAUCACCCAUGUCGGUGGGAGAAGGGUCGUACGGCG [salish99_ExNG02_R04_020] (Eterna round: R96, puzzle: Exclusion NG 2) |  |  |  | 0.0213 µM | 0.0164 µM | 0.0236 µM
23 | UAACAGCAAGGAUAUACGGGCUGUGCUUUUCAUUUCUUACAACAUGAGGAUCACCCAUGUAGAAGGUGCAACAA [Ex2 #6] (Eterna round: R97, puzzle: Exclusion 2) |  |  |  | 0.0544 µM |  | 0.0248 µM
24 | GGUAGAGUGGUAGGAUAUCCGACUGAAACAGACGGAGAAGGACCACAGUCACUGGGUCCACUUAUAAUUAACAAUAAAUCUACC [pwkr exNG1 F6.2] (Eterna round: R96, puzzle: Exclusion NG 1) |  |  |  | 0.326 µM | 0.12 µM | 0.263 µM
25 | CCUCGACAUGAGGAUCACCCAUGUCAGGAUAUUGUGUAUCGGGUUUUUUACGGAAAGGCGAGAAGGGAUGUGUG [LRO-Excl1-10] (puzzle: Exclusion 1) |  | 0.0155 µM |  |  |  | 
26 | UACAUGAGGAUCACCCAUGUUUUGUCGUGUAUGGUAUUUAUCUAGGAUAUCGUUUUAUUUAACCACGAGAAGGAGAGUAUCAAU [MOD2 Solution 21 by JMF] (Eterna round: R96, puzzle: Exclusion NG 3) |  |  |  |  | 0.0339 µM | 0.0397 µM
27 | AAGAAACAUGAGGAUCACCCAUGUGAGGAUAUGUAAAAUAAAAGAAAAUAAAGAAGAAACAGAAGGCACAAAGG [Mat - Mod of Hog D22] (puzzle: Exclusion 1) | 0.0403 µM | 0.0361 µM | 0.0337 µM |  |  | 
28 | CGACGUAAAGGAUAUACAUGAGGAUCACCCAUGUCCCUACAAUGAGUAGGUACACGCAGUAGAAGGUUACUUCG [Eternabot (Original) Solution 15] (Eterna round: R97, puzzle: Exclusion 3) |  |  |  | 0.107 µM |  | 0.037 µM
29 | GUGUGCAGAGGAUAUACAGAGGAAAAGAAGAAAGAAGAGGGACAUGAGGAUCACCCAUGUAGAAGGCUGAGUGU [Excluse me!! 24 - Jieux - Exclusion 2] (puzzle: Exclusion 2) |  | 0.0304 µM |  |  |  | 
30 | UUUAUAUAUGAAGGAUAUACUUAACAUGAGGAUCACCCAUGUGGUGUUGUGAGUGAGUGAGUUUAGUAGAAGGUCAAGUAUUUU [JMF's solution 49] (Eterna round: R96, puzzle: Exclusion NG 2) |  |  |  | 0.719 µM | 0.177 µM | 0.198 µM
31 | GCAGCUAAUCGAGGAUAUCAGCACGUGUAGUGCUGAGAAGGCGACAUGAGGAUCACCCAUGUGAUCAAUUAAUAUUAAUGCUGC [ENG1/11-A3] (Eterna round: R96, puzzle: Exclusion NG 1) |  |  |  | 0.893 µM | 0.308 µM | 0.414 µM
32 | AGCACUAUCACGAAAGUGAUAGUGCAAUAAGCAAGUGAAACAUGAGGAUCACCCAUGUCCUCAAUUGCUCGUCUUAU [Mat - Sensor v2 -ver2- JL mod - D81] (Eterna round: R96, puzzle: Sensor v2, turn-off variant 2) |  |  |  | 0.0493 µM | 0.807 µM | 0.0512 µM
33 | CCGCAAAAGCAGGAUAUCGUAUCGGAAACGAUACGAGAAGGGUUUACAUGAGGAUCACCCAUGUUCCUUAGCGG [Mat - Exclusion 6 - Eli Mod - D101] (puzzle: Exclusion 6) |  | 0.0287 µM |  |  |  | 
34 | UAGGUACAUGAGGAUCACCCAUGUGAGGAUAUAGUUGAAGAUUGCGAGAGGUUGAGGACUAGAAGGCACAGUGG [JR_Exclu1_Sub038] (puzzle: Exclusion 1) | 0.137 µM | 0.0635 µM | 0.0902 µM |  |  | 
